In FireProtDB (doi:10.1111/j.1432-1033.1995.tb20418.x):

Conditions: Aspergillus oryzae (strain ATCC 42149 / RIB 40), Thermal, DSC, 3/3'-dimethylglutaric acid (DMG) 100 mM, NaCl 2 M, whole UniProt chain shown; for heat capacity change of unfolding / unfolding free energy: 25 °C

B1: Guanyl-specific ribonuclease T1 wild type, P00651 (protein)
chain: MMYSKLLTLTTLLLPTALALPSLVERACDYTCGSNCYSSSDVSTAQAAGYQLHEDGETVGSNSYPHKYNNYEGFDFSVSSPYYEWPILSSGDVYSGGSPGADRVVFNENNQLAGVITHTGASGNNFVECT
In the case of B1, the “heat capacity change of unfolding” value (pH 4) is reported as 1.59 kcal/mol/K, the unfolding free energy (pH 4) is reported as 7.43 kcal/mol and the Tm (pH 4) is reported as 72.4 °C. The “unfolding enthalpy (calorimetric)” value (pH 4) was 93.7 kcal/mol, the “heat capacity change of unfolding” value (pH 5) was 1.59 kcal/mol/K and the unfolding free energy (pH 5) was 7.39 kcal/mol. The Tm (pH 5) was 73.2 °C, the “unfolding enthalpy (calorimetric)” value (pH 5) was 93.2 kcal/mol and the “heat capacity change of unfolding” value (pH 6) was 1.59 kcal/mol/K. The unfolding free energy (pH 6) was 6.91 kcal/mol, the Tm (pH 6) was 70.4 °C and the “unfolding enthalpy (calorimetric)” value (pH 6) was 90.2 kcal/mol. For the same protein, the “heat capacity change of unfolding” value (pH 7) was 1.59 kcal/mol/K, the unfolding free energy (pH 7) was 4.54 kcal/mol and the Tm (pH 7) was 66.8 °C. The “unfolding enthalpy (calorimetric)” value (pH 7) was 71.7 kcal/mol, the “heat capacity change of unfolding” value (pH 8) was 1.59 kcal/mol/K and the unfolding free energy (pH 8) was 3.63 kcal/mol. The Tm (pH 8) was 65.4 °C and the “unfolding enthalpy (calorimetric)” value (pH 8) was 63.8 kcal/mol.
